# Tested on: H1299 cells
# Assay: Lactate dehydrogenase (LDH) assay
# Assay type: cell-based, human
# Settings: 271 nM and 1.36 µM SaroL-1, 2 and 4 h
# Method: The human lung epithelial cell line H1299 (American Type Culture Collection, CRL-5803) was cultured in a complete medium, consisting of Roswell Park Memorial Institute (RPMI) medium supplemented with 10% fetal calf serum (FCS) and 2 mM L-glutamine at 37 °C and 5% CO2. Cells were stimulated with different concentrations of SaroL-1 in a complete medium for indicated time points.
# This assay was used to monitor rapid changes in cell viability following the formation of pores induced by SaroL-1. Prior to running the assay, kit components were assembled according to CyQuant^TM LDH Cytotoxicity assay kit (Invitrogen—Thermo Fisher Scientific) manufacturer´s instructions. 1 × 10^4 cells per well were plated in 100 µL in triplicates in a 96-well plate with a flat bottom and allowed to adhere overnight. […] After 30 min\ of incubation at room temperature and in absence of light, 50 µL of Stop solution were added to each well and the absorbance of samples was recorded at 490 nm and 680 nm using a BioTek microplate reader. To determine LDH activity, the reference absorbance at […] (background) was subtracted from the 490 nm absorbance values before calculation of % cytotoxicity. % cytotoxicity was calculated according to the following formula = [SaroL-1-treated LDH activity − spontaneous LDH activity]/[maximum LDH activity − spontaneous LDH activity] × 100.
molecule,measurement,value
"SaroL-1: Recombinant pore-forming lectin of Salpingoeca rosetta (UniProt F2UID9, 329 amino acids) with β-trefoil and aerolysin-like domains (protein, left off: His6, N-terminal, state not stated, Recombinant pore-forming lectin of Salpingoeca rosetta (UniProt F2UID9, 329 amino acids) with β-trefoil and aerolysin-like domains) MSSTFEPATDSPLPVPGVQYFLQHVQSGKYVHPHGGSDMPGNDTALVLHHGFDEKRDALRWVFVNDAENKHQLKHYSSGKFVHPKGGKVGKEATLVVHSSPGRPETMIEMVQEDGRTYLRHTDSDYYVHPHGGSPNPGDNTRLVYYSGYRPSLAFLAIPAETLFVDRIEIHQAQALESINTITSLSDEHRNDTDQPVQTSISVALEESLQDSAQLSFERCFGLKVGSEFEVGLPLVGKTKVSVQFSGSWKSSTIKGEVRTSAVKVQINEHVTIPPGKCVQIRIDTRRCTKTAPATMYLRTASGIEVQRETTVTSTYHYDQEVHVVPVTN",LDH release / membrane damage (in words),induced acute cytotoxicity

# Reference: article PMC9468336, “The choanoflagellate pore-forming lectin SaroL-1 punches holes in cancer cells by targeting the tumor-related glycosphingolipid Gb3” (Communications Biology, 2022)
